Residue numbers refer to the chain shown, from its start. Names and notes keep the numbering of the source.

Assay [1] has as its target T1, cynomolgus monkey FcγRIIa2 extracellular domain with C-terminal His-tag (cynomolgus monkey).
T1 construct: also called cyno FcgRIIa2; cynoFcγRIIa2
T1 chain: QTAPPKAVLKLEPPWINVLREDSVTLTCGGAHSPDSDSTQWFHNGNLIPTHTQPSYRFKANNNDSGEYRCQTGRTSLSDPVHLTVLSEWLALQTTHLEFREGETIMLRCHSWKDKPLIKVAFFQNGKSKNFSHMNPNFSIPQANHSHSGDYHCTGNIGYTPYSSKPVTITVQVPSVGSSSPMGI
The assay can be described thus: SPR, KD(SG1)/KD(variant). How it is done:
(§1) The kinetic analysis of interactions between these antibodies and FcγR was carried out using BIACORE® T200 or BIACORE® 4000 (GE Healthcare). HBS-EP+ (GE Healthcare) was used as the running buffer, and the measurement temperature was set to 25° C. […] After the measurement, the antibody captured on the chip was washed off by allowing reaction with 10 mM glycine-HCl, pH1.5 and 25 mM NaOH so that the chip was regenerated and used repeatedly. The sensorgrams obtained as measurement results were analyzed by the 1:1 Langmuir binding model using the BIACORE® Evaluation Software to calculate the binding rate constant ka (L/mol/s) and dissociation rate constant kd (1/s), and the dissociation constant KD (mol/L) was calculated from these values. […] Regarding such interactions, KD values were calculated using the following 1:1 binding model described in BIACORE® T100 Software Handbook BR1006-48 Edition AE.

Assay [2] addresses T2, cynomolgus monkey FcγRIIIaS extracellular domain with C-terminal His-tag (cynomolgus monkey, UniProt Q8SPW2 21-206 at identity 1.00)).
T2 construct: also called cyno FcgRIIIaS; cynoFcγRIIIaS
T2 chain: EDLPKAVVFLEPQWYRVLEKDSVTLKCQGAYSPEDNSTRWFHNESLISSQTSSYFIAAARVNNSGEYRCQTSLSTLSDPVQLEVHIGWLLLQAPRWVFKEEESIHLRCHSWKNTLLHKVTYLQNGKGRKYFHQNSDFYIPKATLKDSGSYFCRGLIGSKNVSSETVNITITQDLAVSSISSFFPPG
The assay can be described thus: SPR, KD(SG1)/KD(variant). The protocol:
as §1

For assay [3], the target named is T3, human FcγRIIIaV extracellular domain with C-terminal His-tag (human, UniProt P08637 17-208).
T3 construct: also called human FcgRIIIaV
The assay can be described thus: SPR, KD(SG1)/KD(variant). The protocol: as §1
(Surface plasmon resonance follows binding to a sensor surface in real time, without labels.)

The target in assay [4] is T2, cynomolgus monkey FcγRIIIaS …. The assay can be described thus: SPR, antibody captured, FcγR analyte.
The target in assay [5] is T4, cynomolgus monkey FcγRIIa1 extracellular domain with C-terminal His-tag (cynomolgus monkey).
T4 construct: also called cyno FcgRIIa1; cynoFcγRIIa1
T4 chain: T1 chain with T95P, A121T, K127I, S128A, N130K, N135D, Q142R
The assay can be described thus: SPR, KD(SG1)/KD(variant). The protocol:
as §1

The target of assay [6] is T5, cynomolgus monkey FcγRIIa2 extracellular domain, His-tagged (cynomolgus monkey).
T5 construct: also called cyno FcγRIIa2; cynoFcgRIIa2; not shown: C-terminal His-tag
T5 chain: T1 chain
The assay can be described thus: SPR Biacore, antibody captured, FcgR analyte.

Assay [7] concerns the target T6, cynomolgus monkey FcγRIIa3 extracellular domain, His-tagged (cynomolgus monkey).
T6 construct: also called cyno FcγRIIa3; cynoFcgRIIa3; not shown: C-terminal His-tag
T6 chain: T1 chain with K127I, N130K, H133P, Q142R
The assay is described as follows: SPR Biacore, antibody captured, FcgR analyte.

For assay [8], the target named is T7, human FcγRIIIaV extracellular domain, C-terminal His-tag (human, UniProt P08637 17-208).
T7 construct: also called FcgRIIIaV
The assay can be described thus: SPR (BIACORE), captured by anti-human kappa, FcgR analyte. How it is done: as §1
Furthermore, the substitutions used in Example 29 for improving antibody half-life and reducing binding to rheumatoid factor were introduced into human FcγRIIb-enhanced Fc variants and their affinity against human FcγRs were analyzed (Table 29).

The target in assay [9] is T8, cynomolgus monkey FcγRIIa2 extracellular domain with C-terminal His-tag (cynomolgus monkey).
T8 construct: also called cyno FcgRIIa2; cynoFcγRIIa2
T8 chain: T1 chain
The assay can be described thus: SPR (Biacore), KD of SG1 divided by KD of variant.

Assay [10] addresses T9, cynomolgus monkey FcγRIIb extracellular domain with C-terminal His-tag (cynomolgus monkey).
T9 construct: also called cyno FcgRIIb; cynoFcγRIIb
T9 chain: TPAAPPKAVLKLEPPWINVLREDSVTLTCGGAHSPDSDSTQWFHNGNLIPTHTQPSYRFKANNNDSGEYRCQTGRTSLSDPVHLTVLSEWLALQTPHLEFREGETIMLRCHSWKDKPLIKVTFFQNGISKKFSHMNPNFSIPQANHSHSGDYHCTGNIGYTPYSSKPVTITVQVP
The assay is described as follows: SPR (Biacore), KD of SG1 divided by KD of variant.

Assay [11] concerns the target T10, human FcγRIIb extracellular domain with C-terminal His-tag (human, UniProt P31994 43-217).
T10 construct: also called human FcgRIIb
T10 sequence: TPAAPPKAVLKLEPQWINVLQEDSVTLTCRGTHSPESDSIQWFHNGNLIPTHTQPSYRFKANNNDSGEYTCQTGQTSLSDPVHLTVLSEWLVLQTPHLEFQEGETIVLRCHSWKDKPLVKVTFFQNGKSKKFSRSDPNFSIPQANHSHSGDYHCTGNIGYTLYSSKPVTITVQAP
The assay is described as follows: SPR (Biacore), KD of SG1 divided by KD of variant.

In assay [12] the target is T11, cynomolgus monkey FcγRIIa3 extracellular domain with C-terminal His-tag (cynomolgus monkey).
T11 construct: also called cyno FcgRIIa3; cynoFcγRIIa3
T11 chain: T1 chain with K127I, N130K, H133P, Q142R
The assay is described as follows: SPR (Biacore), KD of SG1 divided by KD of variant.

For assay [13], the target named is T12, cynomolgus monkey FcγRIIa1 extracellular domain with C-terminal His-tag (cynomolgus monkey).
T12 construct: also called cyno FcgRIIa1; cynoFcγRIIa1
T12 chain: T1 chain with T95P, A121T, K127I, S128A, N130K, N135D, Q142R
The assay is described as follows: SPR (Biacore), antibody captured, FcgR as analyte.

The target in assay [14] is T13, human FcγRIIaR extracellular domain with C-terminal His-tag (human, UniProt P12318 34-217).
T13 construct: also called human FcgRIIaR; FcγRIIa (type R)
T13 chain: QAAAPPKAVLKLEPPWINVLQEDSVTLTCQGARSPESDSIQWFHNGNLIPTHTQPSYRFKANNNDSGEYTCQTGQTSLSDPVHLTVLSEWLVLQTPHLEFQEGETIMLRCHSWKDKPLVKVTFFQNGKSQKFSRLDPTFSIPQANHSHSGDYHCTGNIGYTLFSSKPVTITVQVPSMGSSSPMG
The assay can be described thus: SPR (Biacore), KD of SG1 divided by KD of variant.

Assay [15] addresses T8, cynomolgus monkey FcγRIIa2 …. The assay is described as follows: SPR (Biacore), antibody captured, FcgR as analyte.
Assay [16] deals with T14, human FcγRIIaH extracellular domain with C-terminal His-tag (human, UniProt P12318 34-217).
T14 construct: also called human FcgRIIaH; FcγRIIa (type H)
T14 sequence: T13 chain with R134H
The assay is described as follows: SPR (Biacore), antibody captured, FcgR as analyte.

T7 sequence (P08637 17-208 F176V): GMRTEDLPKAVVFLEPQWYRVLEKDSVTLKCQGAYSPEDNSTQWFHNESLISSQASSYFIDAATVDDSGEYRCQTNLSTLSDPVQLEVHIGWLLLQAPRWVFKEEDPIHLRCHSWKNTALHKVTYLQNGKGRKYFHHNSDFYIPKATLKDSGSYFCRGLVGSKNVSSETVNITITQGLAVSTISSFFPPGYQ
T3 sequence (P08637 17-208 F176V): as above

B1: MS1032LO06-MY352 (antibody, human IgG1, kappa)
heavy: QVTLKESGPVLVKPTETLTLTCTVSGIDLSHDDISWVRQAPGKGLEWVGIISYAGSTYYASWAKGRLTISKDTSKNQVVLTMTNMDPVDTATYYCARGVPAYSHGGDLWGQGTLVTVSSASTKGPSVFPLAPSSKSTSGGTAALGCLVKDYFPEPVTVSWNSGALTSGVHTFPAVLQSSGLYSLSSVVTVPSSSLGTQTYICNVNHKPSNTKVDKKVEPKSCDKTHTCPPCPAPELLNGPSVFLFPPKPKDTLMISRTPEVTCVVVDVSDEDPEVKFNWYVDGVEVHNAKTKPREEQYNSTYRVVSVLTVLHRDWLNGKEYKCKVSNKALPKPIEKTISKAKGQPREPQVYTLPPSREEMTKNQVSLTCLVKGFYPSDIAVEWESNGQPENNYKTTPPVLDSDGSFFLYSKLTVRKSRWQQGNVFSCSVMHEALHNHYTQKSLSLSP
light: DIVMTQSPATLSLSPGERATLSCTSSQSVYHANWLSWFQQKPGQPPKLLIYWASTLAYGVPSRFSGSGSGTDFTLTISSLQPEDAATYYCAGGYGGGRYAFGQGTKVEIKRTVAAPSVFIFPPSDEQLKSGTASVVCLLNNFYPREAKVQWKVDNALQSGNSQESVTEQDSKDSTYSLSSTLTLSKADYEKHKVYACEVTHQGLSSPVTKSFNRGEC
notes: MY201 with Q311R/D413R; also called M103205H795-MY352; copies: 2 + 2
For orientation: Kd means the constant that tells how readily two partners part at equilibrium. In the case of B1, the figures for the “KD fold (SG1 = 1)” value in [1], in assay [2] and in assay [3] were 3.3 fold, 0.07 fold and 0.04 fold, respectively. This molecule also yielded a Kd in assay [4] of 4 µM.

B2: MS1032LO06-PK55 (antibody, human IgG1, kappa)
heavy: B1 heavy with P345R, R415D
light: B1 light
notes: MY201 with Q311R/P343R; also called MS103205H795-PK55; M103205H795-MY55
With B2, the “KD fold (SG1 = 1)” value in [5] was 3.5 fold; in assay [2], 0.08 fold. The molecule also came in with a Kd in assay [4] of 3.3 µM.

B3: M103205H795-MY066/M103202L889-SK1 (antibody, human IgG1, kappa, name in EU numbering)
heavy: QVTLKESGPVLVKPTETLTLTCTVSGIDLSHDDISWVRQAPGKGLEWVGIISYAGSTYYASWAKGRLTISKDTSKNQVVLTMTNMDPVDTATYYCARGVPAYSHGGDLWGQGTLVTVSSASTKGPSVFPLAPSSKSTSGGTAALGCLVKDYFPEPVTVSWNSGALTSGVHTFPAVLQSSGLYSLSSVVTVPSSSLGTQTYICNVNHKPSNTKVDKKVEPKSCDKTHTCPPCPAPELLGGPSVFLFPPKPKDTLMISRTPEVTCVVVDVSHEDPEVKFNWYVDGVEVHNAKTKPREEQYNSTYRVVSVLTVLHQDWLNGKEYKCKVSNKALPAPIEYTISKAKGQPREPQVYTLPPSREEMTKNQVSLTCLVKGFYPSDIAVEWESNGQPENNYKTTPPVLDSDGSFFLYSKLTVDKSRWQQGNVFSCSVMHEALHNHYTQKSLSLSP
light: B1 light
notes: Substitution introduced into M103205H795-SG1; EU numbering
In the case of B3, the results for the Kd in assay [6] and in assay [7] were 2.6 µM and 6.7 µM, respectively.

B4: MS103240H795-TT69/M103202L1045-SK1 (antibody)
heavy: QVQLVESGGGLVQPGGSLRLSCAVSGIDLSHDDISWVRQAPGKGLEWVSIISYAGSTYYASWAKGRLTISKDTSKNQVVLTMTNMDPVDTATYYCARGVPAYSHGGDLWGQGTLVTVSSASTKGPSVFPLAPSSKSTSGGTAALGCLVKDYFPEPVTVSWNSGALTSGVHTFPAVLQSSGLYSLSSVVTVPSSSLGTQTYICNVNHKPSNTKVDKKVEPKSCDKTHTCPPCPAPELLGGDSVFLFPPKPKDVLMISRTPEVTCVVVDVSHEDPEVKFNWYVDGVEVHNAKTKPREEQYNSTYRVVSVLPVLHRDWLNGKEYKCKVSNKALPKPIEKTISKAKGQPREPQVYTLPPSREEMTKNQVSLTCLVKGFYPSDIAVEWESNGQPENNYKTTPPVLDSDGSFFLYSKLTVKKSRWQQGNVFSCSVLHEALHAHTTRKELSLSP
light: B1 light with S25T, A32E
notes: copies: 2 + 2
B4 displayed a Kd in assay [8] of 930 µM.

B5: M103205H795-MY531 / M103202L889-SK1 (antibody, human IgG1, kappa, name in EU numbering)
heavy: B1 heavy with L236W, N238T, R313Q, K328T, R415D
light: B1 light
On to B5, for which, in [9], the “KD fold (SG1 = 1)” value turned out to be 5.5 fold.

B6: M103205H795-MY527 / M103202L889-SK1 (antibody, human IgG1, kappa, name in EU numbering)
heavy: B1 heavy with A233T, N238T, Q297L, R313Q, R415D
light: B1 light
With B6, the “KD fold (SG1 = 1)” value stood at 3.9 fold in assay [9], 5.3 fold in [10] and 3.3 fold in assay [11].

B7: MS103240H795-TT72/M103202L1045-SK1 (antibody)
heavy: B4 heavy with V266I, L430M, T438Y
light: B1 light with S25T, A32E
notes: copies: 2 + 2
Consider B7, for which, in [8], binding was characterised by a dissociation constant (Kd) of 900 µM.

B8: M103205H795-MY380 / M103202L889-SK1 (antibody, human IgG1, kappa, name in EU numbering)
heavy: B1 heavy with D270E, R313Q, P398K, R415D
light: B1 light
Regarding B8, the “KD fold (SG1 = 1)” value in assay [12] is 5.2 fold. Binding in [13] was characterised by a dissociation constant (Kd) of 0.93 µM.

B9: M103205H795-MY064/M103202L889-SK1 (antibody, human IgG1, kappa, name in EU numbering)
heavy: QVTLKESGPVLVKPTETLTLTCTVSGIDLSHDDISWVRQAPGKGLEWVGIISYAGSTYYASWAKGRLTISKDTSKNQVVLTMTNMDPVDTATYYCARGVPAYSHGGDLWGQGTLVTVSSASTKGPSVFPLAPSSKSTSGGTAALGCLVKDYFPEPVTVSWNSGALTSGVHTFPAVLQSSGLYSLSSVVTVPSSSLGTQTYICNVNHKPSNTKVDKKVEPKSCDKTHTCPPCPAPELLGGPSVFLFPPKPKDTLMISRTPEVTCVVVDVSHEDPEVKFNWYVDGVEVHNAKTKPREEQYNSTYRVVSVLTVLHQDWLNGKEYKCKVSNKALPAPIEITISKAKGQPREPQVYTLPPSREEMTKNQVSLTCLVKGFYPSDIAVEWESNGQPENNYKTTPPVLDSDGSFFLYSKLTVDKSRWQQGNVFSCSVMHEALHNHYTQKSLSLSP
light: B1 light
notes: as for B3
For the molecule B9, the figures for the Kd in assay [6] and in [7] were 2.6 µM and 6.9 µM, respectively.

B10: MS103240H795-TT90/M103202L1045-SK1 (antibody)
heavy: B4 heavy with L236Y, V266I, P345R, K415D, L430M, T438Y
light: B1 light with S25T, A32E
With B10, the dissociation constant Kd in assay [8] turned out to be 960 µM.

B11: M103205H795-MY521 / M103202L889-SK1 (antibody)
heavy: B1 heavy with P234D, N238T, Q297L, R313Q, R415D
light: B1 light
notes: 'Q235L' copied as printed, probably Q295L
With B11, the results for the “KD fold (SG1 = 1)” value in assay [10], in assay [14] and in assay [11] were 2.3 fold, 3.7 fold and 3.1 fold, respectively. Further, the Kd in assay [15] is 3.3 µM; in [16], 0.29 µM.

The values are drawn from US20250076311A1 (Chugai, published 2025).
